Drawing on patent US20230272097A1 (PETMEDIX, published 2023), this text covers binding result and Kd for three molecules.

Test [1] concerns the target T1, canine OX40L, full length membrane form, expressed on the cell surface (HEK293 or MEF cells stably … (canine (dog, beagle))).
T1 construct: The same protein is used on HEK293 and on MEF cells; also called HEK-OX40L; OX40L expressing HEK293 cells
T1 chain: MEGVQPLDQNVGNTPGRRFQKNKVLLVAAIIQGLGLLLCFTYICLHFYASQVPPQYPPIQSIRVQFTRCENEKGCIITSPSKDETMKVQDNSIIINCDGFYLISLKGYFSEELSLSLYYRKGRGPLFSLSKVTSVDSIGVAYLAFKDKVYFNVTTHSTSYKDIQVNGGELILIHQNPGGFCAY
Briefly: flow cytometry, single dose, OX40L expressing HEK293 cells against the parental line, fluorescently labelled secondary antibody. Here is the method: CHO cells supernatants containing candidate antibodies are diluted to 1, 5 or 10 μg/ml in FACS buffer (PBS containing 3% FBS) and screened for their ability to bind canine OX40L proteins expressed on cell surface. In brief, HEK293 or MEF cells (or any other commonly used cell lines) expressing canine OX40L at the cell surface are incubated with 100 μl of FACS buffer containing the candidate antibody for 30′ on ice. As a control the parental cell line (HEK293 or MEF cells not expressing OX40L) is also stained with the same antibody solution. After staining, cells are washed with 150 μl FACS buffer followed by centrifugation at 300 g for 3 min. Supernatant is removed, and the cell pellet is resuspended in FACS buffer containing a 1:1000 dilution of a fluorescently labelled secondary antibody recognising the human or canine Fc region of the test antibody for 30 min in the dark, followed by washing with 150 μl FACS buffer and centrifugation at 300 g for 3 mins. Cells are resuspended in FACS buffer and flow cytometry performed using either a […] cytometer, followed by data analysis using FlowJo (FIG. 8).

Test [2] addresses T1, canine OX40L, full length membrane …. Put plainly: cell binding (flow cytometry on cells expressing OX40L; cell line not given). Here is the method: (§1) Specific binding to cells expressing OX40L is confirmed by purifying mAb from the CHO supernatant using protein A resin (MabSelect, Cytiva). In brief, MabSelect resin is washed in PBS and diluted to have a 10% slurry. An appropriate volume of the 10% slurry is added to the supernatant and incubated 5-10′ at RT before being loaded into a filter column. After 3 washes with PBS the antibodies are eluted using IgG elute buffer (Pierce) directly into neutralisation buffer (10 mM TRIS pH8.0), 8:1 IgG elute: neutralisation buffer ratio. Antibody solutions are quantified measuring absorbance at 280 nm, using a Nanodrop One (Thermo Fisher). Serial 1:3 dilutions of purified antibodies ranging from 6.6 μM to 66 pM are prepared in FACS buffer and are used to stain HEK293 or MEF cells (or any other commonly used cell lines) expressing canine OX40L.

Test [3] concerns the target T2, OX40L ECD-TNCc-HIS protein (trimeric soluble canine OX40L extra cellular domain probe, HIS tagged) (canine; chicken, UniProt P10039 110-139, limits assumed).
T2 construct: domain: trimerization domain; also called HIS tagged trimeric OX40L protein; not shown: HIS tag
T2 sequence: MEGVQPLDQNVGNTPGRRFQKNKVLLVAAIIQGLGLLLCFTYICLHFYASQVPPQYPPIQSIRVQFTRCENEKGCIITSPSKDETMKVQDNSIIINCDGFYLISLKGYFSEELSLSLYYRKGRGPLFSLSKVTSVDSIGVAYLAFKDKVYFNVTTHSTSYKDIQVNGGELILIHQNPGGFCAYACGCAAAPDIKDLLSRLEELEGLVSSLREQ
Put plainly: SPR exp 1, Biacore 8K, OX40L ECD-TNCc-HIS amine coupled to CM5 chip, antibody as analyte, Kd at equilibrium. From the text: (§2) To determine affinity by SPR (Biacore 8K, Cytivia), purified OX40L ECD-TNCc-HIS protein is covalently bound at low density to the surface of a CM5 sensor chip (Cytivia) by amine coupling, using the manufacturer's recommended protocol. Candidate antibodies are subsequently passed across the chip surface at a range of concentrations and affinity determined using the dedicated software (Biacore Insight Evaluation Software).
On the technique in general: In SPR one partner is held on a chip, and binding of the other changes the refractive index at the surface.

Test [4] concerns the target T2, OX40L ECD-TNCc-HIS protein (trimeric …). Briefly: SPR exp 2, Biacore 8K, OX40L ECD-TNCc-HIS amine coupled to CM5 chip, antibody as analyte, Kd at equilibrium.
Source text: as §2

Test [5] concerns the target T1, canine OX40L, full length membrane …. Briefly: flow cytometry titration on HEK cells expressing OX40L; Kd (EC50) from GeoMean vs concentration, Prism four parameter fit. On the procedure: FIG. 10. Affinity determination for antibodies that bind OX40L on HEK cells expressing OX40L. Graphs are generated by plotting GeoMean arbitrary units (AU) against Log₁₀ [concentration]. Kd (EC₅₀) was calculated using Prism.
as §1
For orientation: Flow cytometry measures light scatter and fluorescence of single cells or particles in a stream.

For test [6] the target is unchanged. Briefly: flow cytometry titration on MEF cells expressing OX40L; Kd (EC50) from GeoMean vs concentration, Prism four parameter fit. Here is the method: FIG. 11. Affinity determination for antibodies that bind OX40L on MEF cells expressing OX40L. Graphs are generated by plotting GeoMean arbitrary units (AU) against Log₁₀ [concentration]. Kd (EC₅₀) was calculated using Prism.
as §1

Residue numbers refer to the chain shown, from its start.

B1: PMX 015 (antibody, V domains shown)
V domain 1: EVQLVESGGDLVKPGGSLRISCVASGFTFSYYHMSWVRQAPGKGLQWVAYINSGGFSTNYADAVKGRCSISRDNGKNTLYLQMNSLRPEDTGVYYCASESRWGDSYSGMTYWGHGTSLFVSS
V domain 2: SYVLTQLPSKNVTLKQPAHITCGGDNIGSKSVHWYQQKLGQAPVLIIYYDNSRPTGIPERFSGAKSGNTATLTISGALAEDEADYYCQVWDSSAKASVFGGGTHLTVL
notes: anti-canine OX40L candidate
Consider B1, for which, in test [1], the binding result is on record as “binds”.

B2: PMX014 (antibody, V domains shown)
VH: EVQLVESGGDLVKPGGSLRLSCVASGFTFSNFHMSWVRQAPGKGLQWVAYINSGGFNINYEDAVRGRFTISRDNAKNTLYLQMNSLRAEDTAIYYCARDWDTHLDTNWFYYWGQGTLVTVSS
VL: B1 V domain 2 with P17S, G23R, N51S, K65N, S92I
notes: Canine variable regions
Consider B2, for which the Kd (usually the equilibrium constant for the complex coming apart) worked out at 74.6 nM in test [2]; 19.7 nM in test [3]; 6.61 nM in test [4]; 5.12 nM in test [5]; 1.11 nM in test [6].

B3: PMX012 (antibody, V domains shown)
VH: EVQLVESGGDLVKPGGSLRLACVTSGFTFSSYHMNWVRQAPGKGLQWVAYINTGGTVTTYADAMNADAVRGRFTISRDNVKNTLYLQMNRLRAEDTAVYYCARGYGVFDYWGQGTLVTVSP
VL: SYVLTQLPSKNVTLKQPAHITCGGDNIGSKSVHWYQQKLGQAPVLIIYYDSRRPTGIPERFSGANSGNTATLTISGALAEDEADYYCQVWDNSDRASWVFGEGTQLTVL
notes: Canine variable regions from Ky9 mice; human kappa or canine kappa/lambda light constant
For the molecule B3, the Kd in test [2] amounted to 37 nM; in test [3] it was 14.8 nM; in test [4], 14.8 nM; in test [5] it was 3 nM.
